Test results as given in patent US20260097098A1.

Molecular target: human VEGF165 (non-biotinylated) (human) (UniProt P15692)
Assay: cell-based or functional assay

Chain of human VEGF165 (non-biotinylated) (human) (P15692 other isoform, or with tags, fused parts or gaps): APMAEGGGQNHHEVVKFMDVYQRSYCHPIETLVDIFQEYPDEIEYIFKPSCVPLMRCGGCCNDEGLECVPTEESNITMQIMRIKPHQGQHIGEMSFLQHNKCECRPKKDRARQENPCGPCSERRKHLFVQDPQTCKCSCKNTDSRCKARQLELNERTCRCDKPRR

A maximal inhibition of VEGF-stimulated proliferation of less than 80% was found for EYLEA (aflibercept) (Fc fusion) in this work.
